Source: the MegaScale stability set (Tsuboyama et al. 2023)

B1: 6YSE (parent)
chain: HERALMVNRLQKLTRMLRVHPDPKWKQEQQELIKRLK

Variants of: B1
Assay: folding stability dG (cDNA display proteolysis); higher = more stable
Details: PBS, room temperature

Folding stability dG [kcal/mol]: each site, then its substitutions
D22: S 1.09 | T 1.13 | V 0.67 | W 0.947 | Y 1.14
P23: A 1.03 | D 0.676 | E 0.721 | F 0.718 | G 0.641 | H 0.269 | I 0.608 | K 0.967 | L 0.804 | M 0.09 | N 0.238 | Q 0.666 | R 0.598 | S 0.806 | T 0.669 | V 0.701 | W 0.75 | Y 0.554
K24: A 1.24 | D 0.986 | E 1.01 | F 0.828 | G 0.85 | H 0.889 | I 1.32 | L 1.11 | M 1.09 | N 0.982 | Q 1.22 | R 1.34 | S 0.97 | T 1.3 | V 1.31 | W 0.63 | Y 1.13
W25: A 0.973 | D 0.337 | F 1.25 | G 0.387 | H 0.686 | I 1.62 | K 0.636 | L 1.97 | M 1.71 | N 0.386 | Q 0.755 | R 0.719 | S 0.206 | T 0.731 | V 1.22 | Y 1.32
K26: A 0.85 | C 0.732 | D -0.129 | E 1.14 | F 1.53 | G -0.052 | H 1.01 | I 1.4 | L 1.45 | M 1.29 | N 0.211 | Q 1.03 | R 1.32 | S 0.461 | T 0.715 | V 1.16 | W 0.964 | Y 1.17
Q27: A 1.6 | D 0.957 | E 1.42 | F 1.14 | G 0.59 | H 1.21 | I 1.22 | K 1.46 | L 1.62 | M 1.38 | N 1.09 | R 1.23 | S 1.04 | T 1.01 | V 0.985 | W 0.767 | Y 0.821
E28: A 0.638 | D -0.285 | F 0.366 | I 1.05 | L 0.849 | M 0.854 | N -0.895 | Q 0.317 | R -0.089 | S -0.485 | T -0.079 | V 0.452 | W 0.824 | Y 0.612
Q29: A 1.48 | C 1.52 | D -0.859 | E 0.805 | F 1.53 | H 0.663 | I 1.69 | L 1.85 | M 1.72 | R 1.47 | S 0.65 | T 0.863 | V 1.68 | W 1.47 | Y 1.7
Q30: A 1.07 | C 1.75 | D 0.872 | E 1.38 | F 0.851 | G 0.68 | H 0.978 | I 1.37 | K 0.968 | L 1.52 | M 1.42 | N 0.979 | R 1.21 | S 1.11 | T 1.13 | V 1.1 | W 1.39 | Y 1.04
E31: A 1.2 | C 1.69 | D 1.38 | F 1.01 | G 0.441 | H 0.812 | I 1.14 | K 0.805 | L 1.08 | M 1.45 | N 0.839 | Q 0.963 | R 1.15 | S 0.996 | T 0.995 | V 0.669 | W 1.4 | Y 1.1
L32: F -0.201 | I 0.927 | M -0.196 | W -0.364 | Y -0.525
I33: A 0.217 | E -0.101 | F 0.663 | G -0.702 | H -0.268 | K 0.269
